Measured values: article PMC9363494 (2022)

Biological target: full-length α-synuclein (UniProt P37840 1-140)
Test: NMR; segment 1 (Seg-1)

B1: protein disulfide isomerase (enzyme)
chain: not shown
For B1, the Kd was 750 µM.
